Measurements: patent US20220119522A1 (DENALI THERAPEUTICS, published 2022)
No end group written: not given here.

T1: human TREM2 on the cell surface (human, UniProt Q9NZC2 19-230)
T1 sequence: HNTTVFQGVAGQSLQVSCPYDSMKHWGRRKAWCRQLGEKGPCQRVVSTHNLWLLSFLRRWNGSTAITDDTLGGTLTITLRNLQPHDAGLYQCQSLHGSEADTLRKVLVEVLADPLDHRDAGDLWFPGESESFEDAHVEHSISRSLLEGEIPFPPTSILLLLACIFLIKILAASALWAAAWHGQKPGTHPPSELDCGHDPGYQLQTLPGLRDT

T2: His-tagged human TREM2 ECD (human, UniProt Q9NZC2 19-172)
T2 construct: Biacore and HDX say only recombinant human TREM2 (ECD); also called recombinant human TREM2; hTREM2
T2 sequence: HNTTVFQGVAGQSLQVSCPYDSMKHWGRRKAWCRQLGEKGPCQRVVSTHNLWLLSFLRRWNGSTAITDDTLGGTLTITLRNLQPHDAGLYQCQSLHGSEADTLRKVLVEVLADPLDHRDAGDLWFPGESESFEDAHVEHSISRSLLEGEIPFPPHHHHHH

T3: human TREM2 full length stalk region peptide (aa 129-172) (human, biotinylated (site not stated))
T3 construct: also called Human TREM2 peptide (aa 129-172); full-length TREM2 stalk peptide
T3 peptide: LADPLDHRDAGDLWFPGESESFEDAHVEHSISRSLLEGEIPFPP

T4: human TREM2 truncated stalk peptide (aa 149-163) (human, also: biotinylated (site not given here))
T4 construct: also called Human TREM2 peptide (aa 149-163); truncated stalk peptide containing the ADAM10/17 cleavage site
T4 peptide: SFEDAHVEHSISRSL

T5: mouse TREM2 full length stalk region peptide (aa 131-169) (mouse, UniProt Q99NH8 131-169, biotinylated (site not stated))
T5 peptide (looked up): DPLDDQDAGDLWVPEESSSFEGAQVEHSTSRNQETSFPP

T6: human soluble TREM2 (sTREM2) (human, UniProt Q9NZC2 19-157, limits assumed)
T6 construct: Native shed sTREM2; also called sTREM2 in Human CSF; sTREM2 in huTrem2 KI mouse plasma
T6 sequence: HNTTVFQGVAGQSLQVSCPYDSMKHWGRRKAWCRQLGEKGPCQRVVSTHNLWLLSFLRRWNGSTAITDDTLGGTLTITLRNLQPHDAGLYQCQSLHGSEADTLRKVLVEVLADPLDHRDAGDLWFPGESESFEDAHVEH


Experiments:
[1] = target: T1, human TREM2 on the cell surface; test: cell-based or functional assay
[2] = target: T2, His-tagged human TREM2 ECD; test: SPR (Biacore), antibody captured via anti-human Fab, recombinant TREM2 ECD injected, 1:1 fit
Procedure: (§1) Surface plasmon resonance (Biacore™ 8K instrument) was used to measure anti-TREM2 antibody affinities for human and cynomolgus TREM2 ECD. Anti-TREM2 antibodies were captured using Human Fab Capture Kit (GE Healthcare Life Sciences, Catalog No. 28958325) on a Biacore Series S CM5 sensor chip (GE Healthcare Life Sciences, Catalog No. 29149604). Serial 3-fold dilutions of recombinant human or cynomolgus TREM2 were injected at a flow rate of 30 μL/min. Antibody binding was monitored for 300 seconds, followed by monitoring of antibody dissociation for 600+seconds in HBS-EP+ running buffer (GE Healthcare Life Sciences, Catalog No. BR100669). The binding response was corrected by subtracting the RU value from a blank flow cell. A 1:1 Languir model of simultaneous fitting of kₒₙ and koff was used for kinetics analysis.

[3] = target: T7, recombinant cynomolgus TREM2 ECD (cynomolgus); test: as above
T7 construct: extracellular domain; also called cyno TREM2
Procedure: as §1

[4] = target: T1, human TREM2 on the cell surface; test: cell binding, human macrophages, dose titration
[5] = target: T3, human TREM2 full length stalk region …; test: ELISA on biotinylated peptide captured by streptavidin; A450 normalised to isotype control
Method in brief: (§2)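 Sandwich ELISA: biotinylated TREM2 stalk peptides captured on streptavidin-coated plates, antibodies added for 1 h in 1% BSA/PBS, binding detected with anti-human kappa-HRP and TMB at A450. Values expressed as fold over isotype-control background.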

[6] = target: T4, human TREM2 truncated stalk peptide (aa …); test: as above
Method in brief: as §2

[7] = target: T5, mouse TREM2 full length stalk region …; test: as above
Method in brief: as §2

[8] = target: T2, His-tagged human TREM2 ECD; test: SPR (Biacore)
Procedure: as §1
(§3) Sequence optimization was conducted by searching within CDR sequences for residues that are susceptible to chemical modification (e.g., asparagine deamidation motifs (NG), aspartic acid isomerization motifs (DS), and potential oxidation residues (tryptophan (W) and methionine (M)) and making amino acid substitutions with conservative and germline residues to remove such sequence liabilities. Humanized and sequence-optimized variants of anti-TREM2 antibodies were then analyzed for binding kinetics using Biacore and dose-titrated cell binding to HEK293-H6 cells (see, Example 1 for representative protocols).

[9] = target: T1, human TREM2 on the cell surface; test: flow cytometry, dose-titrated binding to HEK293-H6 cells
Procedure: After incubation, the cells were centrifuged and washed in FACS buffer (PBS+0.5% BSA) twice. Mixed cells were resuspended in FACS buffer with human Trustain FcX solution (Biolegend, Catalog No. 422302) at a density of 10⁶/mL per cell line. The mixed cell lines were seeded at 200,000 cells per well in a 96-well round-bottom plate and incubated for 20 minutes at room temperature. After incubation, the cells were centrifuged and incubated with anti-TREM2 antibodies of about 0-200 nM dose titration for 45 minutes on ice. After incubation, the cells were centrifuged and washed with FACS buffer three times. […] After incubation, the cells were washed with FACS buffer three times, resuspended in 100 μL of FACS buffer, and analyzed by flow cytometry (BD FACSCanto II, San Jose, Calif.), for which 30,000 events were obtained for each sample. Mean fluorescence intensity per cells were calculated by FlowJo software and used for generating dose response binding curve.
as §3

[10] = target: T8, cynomolgus soluble TREM2 (sTREM2) (cynomolgus); test: MSD assay: sTREM2 captured from healthy cynomolgus CSF, sulfo-tagged antibody titrated
T8 construct: also called sTREM2 in Cyno CSF
Procedure: (§4) The affinity of anti-TREM2 antibodies to human TREM2 and cynomolgus TREM2 were measured by Biacore (described in Example 1). The potency of anti-TREM2 antibodies were measured in healthy human volunteer CSF samples (Innovative Research) and healthy cynomolgus monkey CSF samples (Worldwide Primates), by MSD assay. The potency of each antibody was determined by its EC50. Briefly, MSD GOLD 96-well small spot streptavidin plates (MSD, Cat. No. L45SA) coated with capture antibody (biotinylated goat anti-human TREM2, R&D Systems, Cat. No. BAF1828) was incubated with biofluid samples diluted 1:3 in Assay Buffer (25% (v/v) MSD Blocker A (MSD, Cat. No. R93BA-A), 75% (v/v) TBST) for one hour at room temperature. After rinsing the wells with TBST, sulfo-tagged anti-TREM2 antibody was added in a serial dilution (4×dilution over 11 points) to the wells of the plate and incubated for one hour at room temperature. The wells were washed with TBST, and MSD Read Buffer (MSD, Cat. No. R92TC-3) was added to the wells. Signal from the samples were measured using an MSD Meso Sector 5600 device. EC50 values for each antibody was determined by four-parameter variable slope non-linear regression. The variable regions of reference antibody #1 are represented by SEQ ID NOS:344 and 345. The variable regions of reference antibody #2 are represented by SEQ ID NOS:346 and 347. The variable regions of reference antibody #3 are represented by SEQ ID NOS:348 and 349.

[11] = target: T6, human soluble TREM2 (sTREM2); test: MSD assay: sTREM2 captured from healthy human CSF, sulfo-tagged antibody titrated
Procedure: as §4

[12] = target: T2, His-tagged human TREM2 ECD; test: SPR (Biacore); remark: listed apart in the source
Procedure: as §1, with “analysis. […]” for “analysis.”

[13] = target: T7, recombinant cynomolgus TREM2 ECD; test: SPR (Biacore)
Procedure: as §1, with “analysis. […]” for “analysis.”

Binder	Survival EC50 (nM), plate coated mAb, human macrophages [1] [nM]	pSyk activation (HEK293-H6) EC50 (nM) [1] [nM]	Kd [2] [nM]	Kd [3] [nM]	EC50 [4] [nM]	fold over background (A450) [5] [fold]	fold over background (A450) [6] [fold]	fold over background (A450) [7] [fold]	NFAT EC50 (nM), plate coated mAb [1] [nM]	pSyk activation (human macrophages) EC50 (nM) [1] [nM]	Kd [8] [nM]	EC50 [9] [nM]	EC50 [10] [nM]	EC50 [11] [nM]	Kd [12] [nM]	Kd [13] [nM]
CL0020314 (antibody, V domains shown, also called Clone CL0020314) VH: DVKLVESGGGLVKLGGSLKLSCAASGFTFSSYYMSWVRQTPEKRLELVAAINTNGGRTYYPDTVKGRFTISRDNAKNTLYLQMSSLKSEDTALYYCARESDGGAFAYWGQGTLVTVSA VL: DVVMTQTPLSLPVSLGDQASISCRSSQSLVHSNGNTYLHWYLQKPGQSPKLLIYKVSNRFSGVPDRFSGSGSGTDFTLKISRVEAEDLGVYFCSQNTHVPLTFGAGTKLELK	1.6	18.8	0.33	56.9	0.05	11	1.2	1	–	–	–	–	–	–	–	–
CL0020315 (antibody, V domains shown, also called Clone CL0020315) VH: EVQLQQSGPELVKPGASVKISCKASGYTFTDYNIHWVKQSHGKSLEWIGYIYPYNGVTGYNQKFKSKATLTVDNSSSTAYMELRSLTSEDSAVYYCARSRVDGDYWGQGTTLTVSS VL: DVVMTQTPLSLPVSLGDQASISCRSSQSLVHSNGNTYLHWYLQKPGQSPKLLIYKISNRFSGVPDRFSGSGSGTDFTLKISRVEAEDLGVYFCSQSTHVPLTFGAGTKLELK	10.1	–	0.0259	2.52	5.6	8.7	1.3	6.8	72.7	–	–	–	–	–	–	–
CL0020123 (antibody, V domains shown, also called Clone CL0020123) VH: EVQLQQSGAELVRSGASVKLSCTASGFSIEDFYIHWVKQRPEQGLEWIGWIDPENGDSKYAPKFQGKATMTADTSSNTAYLHLSSLTSEDTAVYYCHADHGNYGSTMDYWGQGTSVTVSS VL: DIQMNQSPSSLSASLGDTVTITCHASQHINVWLSWYQQKPGDHPKLLIYKASNLHTGVPSRFSGSGSGTGFTLTISSLQPEDIATYYCQQGQTYPRTFGGGTKLEIK	44.7	–	0.068	5.7	0.3	1.2	1.2	1	–	7	0.1	0.26	–	–	–	–
CL0020139 (antibody, V domains shown, also called Clone CL0020139) VH: EVQLQQSGPELVKPGASVKMSCKAPGYSFTSYLMNWVKQKPGQGLEWIGYINPYSAGSNYNEKFKDKATLTSDKSSSTAYMELRSLTSEDSAVYFCARSSYRYGFDYWGQGTTLTVSS VL: DIQMTQSSSSFSVSLGDRVTITCKASEDIYNRLAWYQQKPGNAPRLLISGATSLETGVPSRFSGSGSGKDYTLSITSLQTEDVATYSCQQYWSTPWTFGGGTKLEIK	1.8	–	1.6	0.3	1.6	1.6	1.3	1.4	30.8	23.8	–	–	–	–	–	–
Reference antibody #1 (antibody, V domains shown) VH: EVQLVQSGAEVKKPGESLKISCKGSGHSFTNYWIAWVRQMPGKGLEWMGIIYPGDSDTRYSPSFQGQVTISADKSISTAYLQWSSLKASDTAVYFCARQRTFYYDSSGYFDYWGQGTLVTVSS VL: DIQMTQSPSSVSASVGDRVTITCRASQGISNWLAWYQQKPGKAPKLLIYAASSLQVGVPLRFSGSGSGTDFTLTISSLQPEDFATYYCQQADSFPRNFGQGTKLEIK	–	–	–	–	–	–	–	–	–	–	–	–	81.6	32.6	5.9	14
CL0020313 (antibody, V domains shown, also called Clone CL0020313) VH: QVQLKQSGPGLLQPSQSLSITCTVSGFSLTSYGVHWVRQSPGKGLEWLGVIWSGGITLYNAAFMSRLSITKDNSKSQVFFKMNSLQADDTAIYYCAKVGYGSSSDYWGQGTTLTVSS VL: DVLMTQSPLSLPVSLGDQASFSCRSSQSIVHSNGNTYLEWYLQKPGQSPKLLIYKVSNRFSGVPDRFSGSGSGTDFTLKISRVEAEDLGVYYCFQGSHVPFTFGSGTKLEIK	30.7	46.6	14	13.8	1.2	12	1.2	–	–	–	–	–	–	–	–	–
